# According to paper PMC6992785, “In cellulo crystallization of Trypanosoma brucei IMP dehydrogenase enables the identification of genuine co-factors” (Nature Communications, 2020):
# B1: Trypanosoma brucei inosine-5'-monophosphate dehydrogenase (enzyme, UniProt P50098 1-512, looked up)
# chain: MENTNLRTKTLRDGTTAEELFSQDGLSFNDFIILPGFIDFDSSKVNVSGQFTKNILLHLPLVSSPMDTVTESSMARAMALMGGIGVIHNNCTVEQQARMVRSVKLYRNGFIMKPKSVSPDVPVSTIRNIKSEKGISGILVTEGGKYDGKLLGIVCTKDIDFVKDASAPVSQYMTRRENMTVERYPIKLEEAMDVLNRSRHGYLPVLNDKDEVVCLCSRRDAVRARDYPNSSLDRNGHLLCAAATSTREADKGRVAALSEAGIDVLVLDSSQGNTIYQVSFIRWVKKTYPHLEVVAGNVVTQDQAKNLIDAGADSLRIGMGSGSICITQEVLACGRPQATAIYKVARYAASRGVPCVADGGLRNVGDVCKALAVGANVAMLGSMIAGTSETPGEYFFKDGMRLKGYRGMGSIDAMLQGRESGKRYLSENETLQVAQGVAGAVLDKGSVLKLLAYIHKGLQQSAQDIGEVSFDAIREKVYEGQVLFNRRTLTAQSEGAVHSLHHYERKLFASKL
# notes: Inosine-5'-monophosphate dehydrogenase of Trypanosoma brucei, full length, with its native C-terminal SKL motif (PTS1); Two monomers in the asymmetric unit; the octamer arises by crystal symmetry; also called TbIMPDH; IMPDH; source: Sf9 insect cells infected with recombinant baculovirus; crystallised in cellulo, crystals isolated by cell lysis (RIPA buffer), washed and stored in PBS; not shown: …
# Molecular target: the molecule itself
# Assay: crystal structure; serial femtosecond crystallography (XFEL, LCLS CXI) at room temperature (291 K) on crystals grown in living Sf9 cells, isolated and kept in PBS; 2.80 Å; space group P4 21 2, two monomers in the asymmetric unit; native ATP and GMP bound
protein,measurement,value
B1,stoichiometry N,8
